# Results as given in PMC6698656, “Structural insights into dimethylation of 12S rRNA by TFB1M: indispensable role in translation of mitochondrial genes and mitochondrial function”.
# B1: h45 RNA (crystal) (structured_RNA)
# RNA: GGUAAGUGUACUGGAAAGUGCACUUGCC
# Target: hsTFB1M (Homo sapiens, UniProt Q8WVM0 28-346)
# Assay: X-ray crystallography; no SAM (binary complex), 3.0 A; EMSA: 50 mM Tris-HCl pH 8.0, 25 mM NaCl, 100 nM RNA, TFB1M 0-2 mM as printed (legend suggests uM), 37 C 30 min; 6% native PAGE, 0.5x TBE
# Conditions: protein: recombinant; tags: His6-MBP N-terminal, removed by TEV; hairpin
# hsTFB1M, sequence (Q8WVM0 28-346): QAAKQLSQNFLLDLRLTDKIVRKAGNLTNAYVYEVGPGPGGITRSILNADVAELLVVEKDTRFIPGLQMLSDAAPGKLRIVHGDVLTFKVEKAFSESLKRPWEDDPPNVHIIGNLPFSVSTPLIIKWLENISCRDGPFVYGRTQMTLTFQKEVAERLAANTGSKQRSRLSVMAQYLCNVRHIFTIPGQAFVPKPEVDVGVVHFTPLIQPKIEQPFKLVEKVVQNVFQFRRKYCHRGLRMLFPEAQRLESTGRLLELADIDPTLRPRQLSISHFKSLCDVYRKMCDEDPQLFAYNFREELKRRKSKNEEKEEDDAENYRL
binder,measurement,value
B1,binding result,binds
